T1: Full-length Human OX40 (human, UniProt P43489 29-277)
T1 construct: also called OXF001; human OX40/CHO
T1 sequence: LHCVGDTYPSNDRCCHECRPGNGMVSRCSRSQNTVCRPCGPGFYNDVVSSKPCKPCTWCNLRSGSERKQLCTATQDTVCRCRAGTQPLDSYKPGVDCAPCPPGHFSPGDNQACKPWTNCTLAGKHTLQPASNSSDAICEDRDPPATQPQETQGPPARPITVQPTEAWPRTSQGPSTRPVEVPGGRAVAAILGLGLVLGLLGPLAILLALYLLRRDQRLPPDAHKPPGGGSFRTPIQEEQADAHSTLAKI

T2: Human OX40 ECD-AFH (human)
T2 construct: ECD'; entry includes the C-terminal tags; also called OXF003; Human OX40 ECD-avi-flag-his
T2 chain: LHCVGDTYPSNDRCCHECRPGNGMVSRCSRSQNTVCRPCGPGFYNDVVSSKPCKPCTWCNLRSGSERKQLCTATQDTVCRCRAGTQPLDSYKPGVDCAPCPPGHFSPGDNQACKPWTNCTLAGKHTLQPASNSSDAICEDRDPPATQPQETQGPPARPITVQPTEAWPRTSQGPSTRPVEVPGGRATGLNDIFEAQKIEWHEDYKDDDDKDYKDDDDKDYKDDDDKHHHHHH

T3: Fc gamma receptor RIIA R131 on CHO-K1SV cells (human, UniProt P12318 34-317)
T3 construct: whole, on cells
T3 sequence (looked up): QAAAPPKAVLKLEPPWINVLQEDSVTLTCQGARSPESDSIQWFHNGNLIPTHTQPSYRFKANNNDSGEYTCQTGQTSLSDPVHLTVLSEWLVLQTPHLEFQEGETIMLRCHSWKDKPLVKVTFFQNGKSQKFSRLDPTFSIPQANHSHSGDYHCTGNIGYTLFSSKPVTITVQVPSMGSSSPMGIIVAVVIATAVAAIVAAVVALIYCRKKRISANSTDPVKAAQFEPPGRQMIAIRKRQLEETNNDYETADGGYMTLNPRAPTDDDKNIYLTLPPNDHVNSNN

T4: Fc gamma receptor RIIA H131 on CHO-K1SV cells (human, UniProt P12318 34-317)
T4 construct: whole, on cells
T4 sequence (looked up): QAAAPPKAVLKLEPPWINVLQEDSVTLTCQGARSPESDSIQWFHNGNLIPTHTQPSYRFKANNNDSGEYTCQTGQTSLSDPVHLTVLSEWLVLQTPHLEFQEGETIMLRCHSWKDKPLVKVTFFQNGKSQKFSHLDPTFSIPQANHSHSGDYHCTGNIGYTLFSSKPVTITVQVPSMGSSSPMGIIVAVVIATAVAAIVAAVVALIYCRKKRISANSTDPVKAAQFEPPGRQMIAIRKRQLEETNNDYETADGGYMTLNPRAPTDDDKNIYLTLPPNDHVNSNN

T5: Fc gamma receptor RIIB/C on CHO-K1SV cells (human, UniProt P31994 43-310)
T5 construct: whole, on cells
T5 sequence (looked up): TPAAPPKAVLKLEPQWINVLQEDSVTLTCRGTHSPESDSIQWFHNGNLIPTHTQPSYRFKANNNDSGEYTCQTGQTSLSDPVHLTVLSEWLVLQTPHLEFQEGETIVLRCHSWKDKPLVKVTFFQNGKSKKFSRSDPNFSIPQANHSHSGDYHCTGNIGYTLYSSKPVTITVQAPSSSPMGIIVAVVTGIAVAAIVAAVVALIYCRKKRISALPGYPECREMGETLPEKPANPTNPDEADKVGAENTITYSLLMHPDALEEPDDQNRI

B1: FXX01066 (bispecific antibody)
chain: EVQLVQSGAEVKKPGASVKVSCKASGYTFTSYWMNWVRQAPGQGLEWMGNIYPSGGSTNYAQKFQGRVTMTVDTSTSTVYMELSSLRSEDTAVYYCASFSDGYYAYAMDYWGQGTLVTVSSGGGGSGGGGSGGGGSGGGGSEIVMTQSPATLSLSPGERATLSCRASQSVSSYLNWYQQKPGQAPRLLIYYASRRHTGIPARFSGSGSGTDFTLTISSLQPEDFAVYYCQQGYNLPYTFGQGTKVEIKEPKSSDKTHTCPPCPAPPAAAPSVFLFPPKPKDTLMISRTPEVTCVVVDVSHEDPEVKFNWYVDGVEVHNAKTKPREEQYNSTYRVVSVLTVLHQDWLNGKEYKCAVSNKALPAPIEKTISKAKGQPREPQVYTLPPSRDELTKNQVSLTCLVKGFYPSDIAVEWESNGQPENNYKTTPPVLDSDGSFFLYSKLTVDKSRWQQGNVFSCSVMHEALHNHYTQKSLSLSPGGGGSPSSYVLTQPPSVSVAPGQTARITCGGNNIGSKSVNWFQQKPGQAPVLVVYDDSGRPSGIPERFSGSTSGNTATLTISRVEAGDEADYYCQVWDSSSDHVVFGGGTKLTVLGGGGSGGGGSGGGGSGGGGSQVQLVESGGGVVQPGRSLRLSCAASGFTLSYYGMHWVRQAPGKGLEWVAAISHDGSDKYYADSVKGRFTISRDNSKNTLYLQMNSLRAEDTAVYYCSNDQFDPWGQGTLVTVSSR
notes: ADAPTIR scFv-Fc-scFv, anti-4-1BB (VH-VL) N-terminal, anti-OX40 C-terminal, PAA (del) Fc; also called FX01066
B2: TSC 1005 (other)
chain: EPKSSDKTHTCPPCPAPPVAAPSVFLFPPKPKDTLMISRTPEVTCVVVDVSHEDPEVKFNWYVDGVEVHNAKTKPREEQYNSTYRVVSVLTVLHQDWLNGKEYKCAVSNKALPAPIEKTISKAKGQPREPQVYTLPPSRDELTKNQVSLTCLVKGFYPSDIAVEWESNGQPENNYKTTPPVLDSDGSFFLYSKLTVDKSRWQQGNVFSCSVMHEALHNHYTQKSLSLSPG
notes: IgG1 Fc with E233P, L234V, L235A, deletion of G236, G237A, K322A (EU); also called PVAdel TSC01005

What was measured:
[1] = molecular target: T1, Full-length Human OX40; assay: flow cytometry, CHO cells expressing human OX40
[2] = molecular target: T2, Human OX40 ECD-AFH; assay: SPR (T200), construct captured, monomeric ECD as analyte
Description: (§1) Mouse anti-human IgG (GE, BR-1008-39) at 25 μg/ml in 10 mM sodium acetate pH 5.0 was immobilized at a density of ˜10,000 response units (RU) onto each flow cell of a CM5 research-grade sensor chip (GE) by standard amine coupling chemistry. Each binding protein at approximately 100 nM in HBS-EP+ with 0.2% BSA buffer was captured in a flow cell with the immobilized anti-human IgG at a flow rate of 10 μL/min for 20 seconds, leaving one flow cell surface unmodified as the reference. Using a single-cycle kinetics mode, five different concentrations of ECD were sequentially injected through each flow cell at 30 μL/min for 300 seconds followed by a 600 second dissociation period. Regeneration was achieved by injection of 3 M MgCl₂ at a flow rate of 30 μL/min for 30 seconds followed by HBS-EP+ with 0.2% BSA buffer stabilization for 1 min.
(§2) Sensorgrams obtained from kinetic SPR measurements were analyzed by the double subtraction method. The signal from the reference flow cell was subtracted from the analyte binding response obtained from flow cells with immobilized or captured ligands. Buffer reference responses were then averaged from multiple injections. The averaged buffer reference responses were then subtracted from analyte binding responses, and the final double-referenced data were analyzed with Biacore T200 Evaluation software (2.0, GE), globally fitting data to derive kinetic parameters. All sensorgrams were fitted using a simple one-to-one binding model.

[3] = molecular target: T6, Human 4-1BB ECD-AFH (human); assay: as above
T6 construct: entry includes the tags; also called FOB003; HUMAN CD137 ECD-AVI-FLAG-HIS
Description: as §1, §2

[4] = molecular target: T3, Fc gamma receptor RIIA R131 on CHO-K1SV …; assay: flow cytometry, CHO-K1SV transfectants
Description: (§3) CHO-K1SV cells stably transfected with a series of FcγR receptors were incubated with each of the […] listed in Table 23. A typical experiment labeled approximately 100,000 cells per well, in 96-well plates, with a range of binding molecule concentrations of 1 to 1000 nM, in 100 μl of PBS buffer with 0.2% BSA and 2 mM EDTA, for 30 minutes on ice, followed by washes and incubation with PE-labeled minimum cross species reactive secondary antibody, goat anti-human IgG Fcγ, F(ab′)2 ([…]) for 30 minutes to 1 hour on ice. Signal from bound molecules was detected using a LSR-II™ flow cytometer (BD Biosciences) and analyzed by FlowJo flow cytometry analysis software. Mean fluorescence intensity (MFI) of bound molecules on cells was determined after exclusion of doublets.

[5] = molecular target: T4, Fc gamma receptor RIIA H131 on CHO-K1SV …; assay: flow cytometry, CHO-K1SV transfectants
Description: as §3

[6] = molecular target: T5, Fc gamma receptor RIIB/C on CHO-K1SV …; assay: flow cytometry, CHO-K1SV transfectants
Description: as §3

[7] = molecular target: T7, Fc gamma receptor RIIIA F158 on CHO-K1SV cells (human, UniProt P08637 17-254); assay: flow cytometry, CHO-K1SV transfectants
T7 construct: whole, on cells
Description: as §3

[8] = molecular target: T8, Fc gamma receptor RIIIB on CHO-K1SV cells (human, UniProt O75015 17-200); assay: flow cytometry, CHO-K1SV transfectants
T8 construct: whole, on cells
Description: as §3

T6 sequence (chain, as listed by the source limits assumed): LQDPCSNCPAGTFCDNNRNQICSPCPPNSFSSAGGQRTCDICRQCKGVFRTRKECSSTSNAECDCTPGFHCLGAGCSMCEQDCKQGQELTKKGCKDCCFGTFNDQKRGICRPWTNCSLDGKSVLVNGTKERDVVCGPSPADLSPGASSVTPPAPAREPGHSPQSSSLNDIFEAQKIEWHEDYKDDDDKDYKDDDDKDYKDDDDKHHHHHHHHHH
T8 sequence (O75015 17-200): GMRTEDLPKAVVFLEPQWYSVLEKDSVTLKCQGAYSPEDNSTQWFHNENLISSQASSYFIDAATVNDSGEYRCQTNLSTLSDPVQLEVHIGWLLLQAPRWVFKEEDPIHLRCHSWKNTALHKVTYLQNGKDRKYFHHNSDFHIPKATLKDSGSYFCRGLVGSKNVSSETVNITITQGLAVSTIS
T7 sequence (P08637 17-254): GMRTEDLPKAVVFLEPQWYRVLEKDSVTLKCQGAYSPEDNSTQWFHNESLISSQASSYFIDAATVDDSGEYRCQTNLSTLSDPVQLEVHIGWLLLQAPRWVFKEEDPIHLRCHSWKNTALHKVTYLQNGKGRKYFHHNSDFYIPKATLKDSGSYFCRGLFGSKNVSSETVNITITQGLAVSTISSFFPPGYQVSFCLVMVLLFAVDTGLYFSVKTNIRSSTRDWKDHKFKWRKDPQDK

Row | Binder | EC50 [1] | Max MFI [1] | Kd [2] | koff [2] | kon [2] | Kd [3] | koff [3] | kon [3] | binding result [4] | binding result [5] | binding result [6] | binding result [7] | binding result [8]
1 | B1 | 1.5 nM | 8620 MFI | 0.4 nM | 0.00014 s⁻¹ | 380000 M⁻¹ s⁻¹ | 14 nM | 0.0044 s⁻¹ | 300000 M⁻¹ s⁻¹ |  |  |  |  | 
2 | B2 |  |  |  |  |  |  |  |  | no binding (tested: 1 to 1000 nM) | no binding (tested: 1 to 1000 nM) | no binding (tested: 1 to 1000 nM) | no binding (tested: 1 to 1000 nM) | no binding (tested: 1 to 1000 nM)

From patent publication US20220242962A1 (APTEVO RESEARCH AND DEVELOPMENT, published 2022)
